Key:
[1] = target: UBCH5B (ubiquitin-conjugating enzyme E2 D2) (human, UniProt P62837 1-147); assay: AUC
[2] = target: the molecule itself; assay: AUC

- Kd [1]: 15 µM
B1: RING finger protein 4 (RNF4) (enzyme, human, UniProt P78317 1-190, looked up)
chain: MSTRKRRGGAINSRQAQKRTREATSTPEISLEAEPIELVETAGDEIVDLTCESLEPVVVDLTHNDSVVIVDERRRPRRNARRLPQDHADSCVVSSDDEELSRDRDVYVTTHTPRNARDEGATGLRPSGTVSCPICMDGYSEIVQNGRLIVSTECGHVFCSQCLRDSLKNANTCPTCRKKINHKRYHPIYI
- stoichiometry N [2]: 2

— paper PMC5115946 (Journal of molecular biology, 2016)
